Source: patent US20180085476

Test system: T1, promolecule containing protonectin (portion A), PR linker (X2) and PAR-1 exosite recognition sequence (portion Z), Cy3 on an N-terminal lysine
T1 sequence: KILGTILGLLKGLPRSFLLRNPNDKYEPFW

## thrombin
  KM (Michaelis-Menten, digestion followed by reverse phase HPLC): KM 200 nM
  kcat/KM (Michaelis-Menten, digestion followed by reverse phase HPLC): kcat/KM=8 µM^-1 sec^-1
